According to paper PMC10776578, “Epstein-Barr virus-driven B cell lymphoma mediated by a direct LMP1-TRAF6 complex” (Nature Communications, 2024):
“Also recorded” adds a separate entry of the source.

B1: R392A (protein, UniProt Q9Y4K3 1-522, looked up, variant R392A)
TNF receptor-associated …: MSLLNCENSCGSSQSESDCCVAMASSCSAVTKDDSVGGTASTGNLSSSFMEEIQGYDVEFDPPLESKYECPICLMALREAVQTPCGHRFCKACIIKSIRDAGHKCPVDNEILLENQLFPDNFAKREILSLMVKCPNEGCLHKMELRHLEDHQAHCEFALMDCPQCQRPFQKFHINIHILKDCPRRQVSCDNCAASMAFEDKEIHDQNCPLANVICEYCNTILIREQMPNHYDLDCPTAPIPCTFSTFGCHEKMQRNHLARHLQENTQSHMRMLAQAVHSLSVIPDSGYISEVRNFQETIHQLEGRLVRQDHQIRELTAKMETQSMYVSELKRTIRTLEDKVAEIEAQQCNGIYIWKIGNFGMHLKCQEEEKPVVIHSPGFYTGKPGYKLCMALHLQLPTAQRCANYISLFVHTMQGEYDSHLPWPFQGTIRLTILDQSEAPVRQNHEEIMDAKPELLAFQRPTIPRNPKGFGYVTFMHLEALRQRTFIKDDTLLVRCEVSTRFDMGSLRREGFQPRSTDAGV
B2: F471A (protein, UniProt Q9Y4K3 1-522, looked up, variant F471A)
TNF receptor-associated …: MSLLNCENSCGSSQSESDCCVAMASSCSAVTKDDSVGGTASTGNLSSSFMEEIQGYDVEFDPPLESKYECPICLMALREAVQTPCGHRFCKACIIKSIRDAGHKCPVDNEILLENQLFPDNFAKREILSLMVKCPNEGCLHKMELRHLEDHQAHCEFALMDCPQCQRPFQKFHINIHILKDCPRRQVSCDNCAASMAFEDKEIHDQNCPLANVICEYCNTILIREQMPNHYDLDCPTAPIPCTFSTFGCHEKMQRNHLARHLQENTQSHMRMLAQAVHSLSVIPDSGYISEVRNFQETIHQLEGRLVRQDHQIRELTAKMETQSMYVSELKRTIRTLEDKVAEIEAQQCNGIYIWKIGNFGMHLKCQEEEKPVVIHSPGFYTGKPGYKLCMRLHLQLPTAQRCANYISLFVHTMQGEYDSHLPWPFQGTIRLTILDQSEAPVRQNHEEIMDAKPELLAFQRPTIPRNPKGAGYVTFMHLEALRQRTFIKDDTLLVRCEVSTRFDMGSLRREGFQPRSTDAGV
B3: Y473A (protein, UniProt Q9Y4K3 1-522, looked up, variant Y473A)
TNF receptor-associated …: MSLLNCENSCGSSQSESDCCVAMASSCSAVTKDDSVGGTASTGNLSSSFMEEIQGYDVEFDPPLESKYECPICLMALREAVQTPCGHRFCKACIIKSIRDAGHKCPVDNEILLENQLFPDNFAKREILSLMVKCPNEGCLHKMELRHLEDHQAHCEFALMDCPQCQRPFQKFHINIHILKDCPRRQVSCDNCAASMAFEDKEIHDQNCPLANVICEYCNTILIREQMPNHYDLDCPTAPIPCTFSTFGCHEKMQRNHLARHLQENTQSHMRMLAQAVHSLSVIPDSGYISEVRNFQETIHQLEGRLVRQDHQIRELTAKMETQSMYVSELKRTIRTLEDKVAEIEAQQCNGIYIWKIGNFGMHLKCQEEEKPVVIHSPGFYTGKPGYKLCMRLHLQLPTAQRCANYISLFVHTMQGEYDSHLPWPFQGTIRLTILDQSEAPVRQNHEEIMDAKPELLAFQRPTIPRNPKGFGAVTFMHLEALRQRTFIKDDTLLVRCEVSTRFDMGSLRREGFQPRSTDAGV

Columns and labels:
GST-CD40_216-277 = assay: AlphaScreen PPI, TRAF6 mutants binding to CD40; design: species or system human; TRAF6 binding to CD40 (AlphaScreen), mean: unit not given here; conditions: for effect of TRAF6 mutation on binding to CD40 (in words): AlphaScreen PPI; for TRAF6 binding to CD40 (AlphaScreen), mean / TRAF6 binding to CD40 (AlphaScreen): Figure 2b; for TRAF6 binding to CD40 (AlphaScreen), mean: mean of n = 3
Method: (§1) Fig. 2 LMP1 binds to the receptor-interacting surface of TRAF6. a Mutations within the receptor-interacting surface of TRAF6 affect binding to LMP1. The TRAF6 mutants R392A, K469A, F471A, and Y473A were tested LMP1 in AlphaScreen PPI experiments with GST-LMP1_181-386. Data are mean values ± SD of three independent experiments. Statistics: one-way ANOVA. b TRAF6 R392A differentiates between CD40 and LMP1/RANK. AlphaScreen PPI experiments with GST-CD40_216-277. Data are mean values ± SD of three independent experiments. […] AlphaScreen PPI experiments with GST-RANK314-355. Data are mean values ± SD of four independent experiments. Statistics: one-way ANOVA. d TRAF6 mutants that fail to interact with LMP1 in PPI assays are also unable to bind cellular LMP1. HEK293 cells were co-transfected with HA-LMP1 and the indicated Flag-TRAF6 mutants. Flag-TRAF6 was immunoprecipitated (IP) via its Flag-tag and coprecipitated HA-LMP1 was detected on immunoblots by an α-HA antibody. Uncropped blots in Supplementary Fig. 6b. For statistical analysis LMP1 signals were digitalized and quantified (graph). Data are mean values ± SD of three independent experiments. […] TRAF6 recruitment is dependent on amino acids 371 − 386 of LMP1 (small panel). Confocal microscopy images show representative cells of three independent experiments. Quantitative data are mean values ± SD of ten randomly selected cells per transfection of one representative experiment (graph). Scale bars: 10 µm. Statistics: one-way ANOVA. p-values: *p ≤ 0.05, **p ≤ 0.01, ***p ≤ 0.001, ****p ≤ 0.0001. Source data and exact p-values in the Source Data file.
(§2) AlphaScreen experiments were performed in 96- or 384-well plates (Perkin Elmer, OptiPlate). In both assay formats, His-TRAF and GST-LMP1, GST-CD40, or GST-RANK proteins were incubated together in 40 µL of PBS (protein concentrations were calculated to the final reaction volume of 60 µL) supplemented with 0.5% BSA (Sigma, #A7030) and 0.1% Tween-20 (AppliChem, #A4974), for 1 h at room temperature (RT). If not indicated otherwise, standard protein concentrations were 300 nM for His-TRAF proteins and 100 nM for GST-LMP1 proteins. Ni-NTA-acceptor (Perkin Elmer, #6760619 C) and GST-acceptor (Perkin Elmer, # 6765300) beads were added each to a final concentration of 1–4 µg per mL in a final reaction volume of 60 µL and incubated for 1 h at RT in the dark. AlphaScreen PPI signals were measured in a CLARIOstar reader (BMG Labtech GmbH).

HA-LMP1 = assay: Confocal immunofluorescence colocalization of Flag-TRAF6 with HA-LMP1 in HeLa cells; type: cell-based, Epstein-Barr virus; conditions: for colocalization with HA-LMP1 (in words): confocal microscopy; for colocalization of TRAF6 with LMP1, mean: mean of ten cells
Method: HeLa cells were seeded onto cover glasses (Thermo Scientific, Menzel) in 24-well plates one day before transfection. Cells were transfected at 50–60% confluency with 50 ng of pCMV-HA-LMP1 plasmids and 100 ng of pRK5-Flag-TRAF6 plasmids, adjusted to a total of 500 ng DNA per sample with pRK5 empty vector, using Lipofectamine 2000 (Thermo Fisher Scientific) according to the manufacturer’s instructions. At 24 h posttransfection, cells were washed once with PBS and fixed with 4% paraformaldehyde (Sigma-Aldrich) for 20 min at RT, followed by permeabilization with 0.3% (v/v) Triton X-100 and blocking with 5% (v/v) FBS in PBS for 1 h at RT. For immunostaining, the cells were incubated overnight with the primary antibodies α-HA (1:1000, clone 16B12, BioLegend) and α-DYKDDDDK (1:1000, clone L5, BioLegend) at 4 °C. The secondary antibodies goat α-mouse Alexa 488 (1:500, cross-adsorbed, Invitrogen, #A-11029) and goat α-rat Alexa 555 (1:500, cross-adsorbed, Invitrogen, #A-21434) were added for 1.5 h at RT. Microscope slides were sealed with cover glasses using Mowiol mounting medium (Sigma-Aldrich). Nuclei were stained with Hoechst 33258 (Sigma-Aldrich). All samples were imaged using a Leica TCS SP5 confocal microscope with 405 nm, 488 nm, 543 nm or 633 nm laser lines, scanning each channel separately under image capture conditions that eliminated channel overlap. For each single experiment, 10 transfected cells positive for both constructs were randomly captured as single-cell images for quantification. The resulting images were then analyzed using the Leica TCS SP5 colocalization analyses application (LAS AF Version 2.7.3.9723). Analysis was performed with default parameters.

GST-LMP1_181-386 = assay: AlphaScreen PPI, TRAF6 mutants binding to LMP1; design: species or system Epstein-Barr virus; TRAF6 binding to LMP1 (AlphaScreen), mean: unit not given here; conditions: for effect of TRAF6 mutation on binding to LMP1 (in words): AlphaScreen PPI; for TRAF6 binding to LMP1 (AlphaScreen), mean / TRAF6 binding to LMP1 (AlphaScreen): Figure 2a; for TRAF6 binding to LMP1 (AlphaScreen), mean: mean of n = 3
Method: as §1, §2

[1] = relative to mean wt 100, replicate 1

Row | Molecule | effect of TRAF6 mutation on binding to CD40 (in words) (GST-CD40_216-277) | TRAF6 binding to CD40 (AlphaScreen), mean (GST-CD40_216-277) | TRAF6 binding to CD40 (AlphaScreen) (GST-CD40_216-277; [1]) | TRAF6 binding to CD40 (AlphaScreen) (GST-CD40_216-277; replicate 2) | TRAF6 binding to CD40 (AlphaScreen) (GST-CD40_216-277; replicate 3) | colocalization with HA-LMP1 (in words) (HA-LMP1) | colocalization of TRAF6 with LMP1, mean (HA-LMP1) | effect of TRAF6 mutation on binding to LMP1 (in words) (GST-LMP1_181-386) | TRAF6 binding to LMP1 (AlphaScreen), mean (GST-LMP1_181-386) | TRAF6 binding to LMP1 (AlphaScreen) (GST-LMP1_181-386; [1]) | TRAF6 binding to LMP1 (AlphaScreen) (GST-LMP1_181-386; replicate 2) | TRAF6 binding to LMP1 (AlphaScreen) (GST-LMP1_181-386; replicate 3)
1 | B1 | no impact on TRAF6 binding to CD40 | 85.62 | 56.3 | 84.0 | 116.7 | fail to interact with LMP1 wild-type clusters; also recorded: strongly decreased colocalization with HA-LMP1 | 16.72 | prevented the interaction of TRAF6 with LMP1 and RANK | 4.615 | 2.0 | 6.0 | 5.9
2 | B2 | complete loss of TRAF6 binding | 0.6069 | 0.8 | 0.43 | 0.6 | fail to interact with LMP1 wild-type clusters; also recorded: strongly decreased colocalization with HA-LMP1 | 13.45 | complete loss of TRAF6 binding | 5.785 | 2.7 | 7.8 | 6.8
3 | B3 | complete loss of TRAF6 binding | 0.5871 | 0.7 | 0.5 | 0.5 | fail to interact with LMP1 wild-type clusters; also recorded: strongly decreased colocalization with HA-LMP1 | 24.45 | complete loss of TRAF6 binding | 1.355 | 0.9 | 1.6 | 1.5
